The experiment deals with LmrR_V15aY. Nature of the experiment: SEC; purified LmrR_V15aY after affinity chromatography; conditions not shown (Fig. S2, ESI). In general terms: SEC sorts molecules by how far they enter the pores of the column.

One may read the stoichiometry N as a count of units in the complex or per binding partner. On to LmrR_V15aY (enzyme), for which the stoichiometry N was 2.

These data come from publication PMC12015630.
